{"source": "patent US20200123260A1", "about": "(Pfizer, published 2020)", "binders": {"B1": {"name": "TAM-163 (huTOA-1 v1.0/1.4) (antibody, human IgG1, kappa, V domains shown)", "VH": "EVQLVESGGGLVQPGGSLRLSCAASGYSFTAYFMNWVRQAPGKGLEWVARINPNNGDTFYTQKFKGRFTISRDNAKNSLYLQMNSLRAEDTAVYYCARRDYFGAMDYWGQGTLVTVSS", "VL": "DIQMTQSPSSLSASVGDRVTITCRASQTISNNLHWYQQKPGKAPKLLIKSASLAISGVPSRFSGSGSGTDFTLTISSLQPEDFATYYCQQSNSWPNTFGGGTKVEIKR", "notes": "IgG1 with effector-function ablating CH2; Also used biotinylated; also called humanized TOA-1; Humanized TOA1"}, "B2": {"name": "C5 (anti-CCL20 antibody, clone C5, parental) (antibody, human IgG1, kappa, V domains shown)", "VH": "QVQLVQSGAEVKKPGSSVKVSCKASGGTFSSYAISWVRQAPGQGLEWMGGIIPIFGTANYAQKFQGRVTITADESTSTAYMELSSLRSEDTAVYYCAGGSITGTTPFDYWGRGTLVTVSS", "VL": "AIQLTQSPSSLTASVGDRVTITCRASQFASNDVGWYQQKPGKAPKLLIYAASSLQSGVPPRFSGSGSGTEFTFTISSLQPEDFATYYCLQDYTYPLTFGQGTKVEIKR", "notes": "also called anti-CCL20-clone5; CCL20-Clone 5"}}, "key": {"[1]": {"target": "T1, mouse TrkB (nm_001025074) on HEK293 cells (mouse, UniProt P15209 32-821)", "T1 construct": "whole, on cells; also called rmuTrkB-CRE", "T1 sequence (P15209 32-821)": "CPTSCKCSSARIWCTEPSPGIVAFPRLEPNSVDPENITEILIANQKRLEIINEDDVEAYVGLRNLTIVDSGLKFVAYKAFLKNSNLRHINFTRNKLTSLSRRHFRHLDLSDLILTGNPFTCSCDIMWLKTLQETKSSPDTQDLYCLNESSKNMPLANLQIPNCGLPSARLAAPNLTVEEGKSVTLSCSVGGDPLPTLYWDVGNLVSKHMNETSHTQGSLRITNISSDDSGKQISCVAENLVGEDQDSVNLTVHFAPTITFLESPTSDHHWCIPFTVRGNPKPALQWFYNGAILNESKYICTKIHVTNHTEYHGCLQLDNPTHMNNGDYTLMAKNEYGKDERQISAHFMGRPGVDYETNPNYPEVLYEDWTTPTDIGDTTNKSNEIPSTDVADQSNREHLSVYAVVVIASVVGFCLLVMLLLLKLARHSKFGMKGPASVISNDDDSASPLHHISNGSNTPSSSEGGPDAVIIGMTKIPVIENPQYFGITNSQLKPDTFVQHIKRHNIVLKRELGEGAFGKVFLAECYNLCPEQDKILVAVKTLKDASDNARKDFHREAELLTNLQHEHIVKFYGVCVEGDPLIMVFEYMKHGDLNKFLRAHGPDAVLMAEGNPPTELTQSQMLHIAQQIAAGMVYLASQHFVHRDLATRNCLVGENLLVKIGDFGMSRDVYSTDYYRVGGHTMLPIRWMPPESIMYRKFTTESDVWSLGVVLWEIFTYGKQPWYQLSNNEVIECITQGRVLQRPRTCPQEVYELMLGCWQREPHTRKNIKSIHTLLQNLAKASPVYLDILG", "assay": "cell-based ELISA on transfected 293 cells"}, "[2]": {"target": "T2, TrkB, Cat (Felis domesticus) on 293 cells (cat (Felis domesticus))", "T2 construct": "Whole entry with signal peptide; also called cat TrkB", "T2 sequence (chain, as listed by the source limits assumed)": "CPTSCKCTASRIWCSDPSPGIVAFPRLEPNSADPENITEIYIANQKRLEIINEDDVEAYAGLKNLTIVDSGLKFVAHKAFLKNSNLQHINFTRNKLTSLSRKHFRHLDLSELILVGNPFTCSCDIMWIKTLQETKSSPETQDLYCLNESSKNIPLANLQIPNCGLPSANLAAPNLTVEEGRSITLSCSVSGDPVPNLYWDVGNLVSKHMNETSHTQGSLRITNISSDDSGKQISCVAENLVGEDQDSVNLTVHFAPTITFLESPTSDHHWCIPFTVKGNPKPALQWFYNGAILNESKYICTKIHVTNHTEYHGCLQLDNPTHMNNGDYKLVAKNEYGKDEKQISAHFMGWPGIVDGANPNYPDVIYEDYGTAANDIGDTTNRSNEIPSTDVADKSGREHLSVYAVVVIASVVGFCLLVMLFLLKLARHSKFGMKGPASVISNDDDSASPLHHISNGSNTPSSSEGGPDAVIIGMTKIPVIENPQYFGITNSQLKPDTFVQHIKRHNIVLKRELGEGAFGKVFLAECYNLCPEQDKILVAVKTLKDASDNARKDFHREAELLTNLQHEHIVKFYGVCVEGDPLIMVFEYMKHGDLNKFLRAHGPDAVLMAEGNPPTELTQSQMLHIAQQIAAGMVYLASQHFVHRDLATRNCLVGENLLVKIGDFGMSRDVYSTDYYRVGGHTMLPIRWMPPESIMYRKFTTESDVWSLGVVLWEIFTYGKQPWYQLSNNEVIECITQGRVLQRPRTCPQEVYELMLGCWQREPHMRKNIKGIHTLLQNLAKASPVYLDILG", "assay": "cell-based ELISA on transfected 293 cells"}, "Chimeric TrkB (d4TrkA)": {"target": "T3, Chimeric TrkB (d4TrkA) (human)", "T3 construct": "TrkB residues 190-282 replaced by TrkA residues 187-281", "assay": "cell-based ELISA on transfected 293 cells"}, "[3]": {"target": "T4, human p75NTR (open reading frame from NM_002507) on HEK293 cells (human, UniProt P08138 29-427)", "T4 construct": "whole, on cells; also called hu p75NTR", "T4 sequence (looked up)": "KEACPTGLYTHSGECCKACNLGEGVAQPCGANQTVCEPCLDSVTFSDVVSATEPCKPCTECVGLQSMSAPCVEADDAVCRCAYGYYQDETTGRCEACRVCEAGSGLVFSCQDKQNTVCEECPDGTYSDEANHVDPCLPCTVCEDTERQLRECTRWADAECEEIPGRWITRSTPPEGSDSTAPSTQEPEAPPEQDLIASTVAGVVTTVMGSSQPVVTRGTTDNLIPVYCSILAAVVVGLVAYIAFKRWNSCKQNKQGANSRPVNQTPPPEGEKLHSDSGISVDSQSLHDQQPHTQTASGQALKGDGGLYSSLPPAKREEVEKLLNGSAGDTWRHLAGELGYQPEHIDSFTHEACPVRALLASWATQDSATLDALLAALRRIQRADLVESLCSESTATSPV", "assay": "FACS on transiently transfected HEK293 cells, FITC-labeled mouse anti-human IgG"}, "[4]": {"target": "T1, mouse TrkB (nm_001025074) on HEK293 …", "assay": "cell-based ELISA on transiently transfected HEK293 cells"}, "[5]": {"target": "T2, TrkB, Cat (Felis domesticus) on 293 …", "assay": "cell-based ELISA on transiently transfected HEK293 cells"}, "[6]": {"target": "T5, human TrkB (open reading frame from nm_006180) on HEK293 cells (human, UniProt Q16620 32-822)", "T5 sequence (Q16620 32-822)": "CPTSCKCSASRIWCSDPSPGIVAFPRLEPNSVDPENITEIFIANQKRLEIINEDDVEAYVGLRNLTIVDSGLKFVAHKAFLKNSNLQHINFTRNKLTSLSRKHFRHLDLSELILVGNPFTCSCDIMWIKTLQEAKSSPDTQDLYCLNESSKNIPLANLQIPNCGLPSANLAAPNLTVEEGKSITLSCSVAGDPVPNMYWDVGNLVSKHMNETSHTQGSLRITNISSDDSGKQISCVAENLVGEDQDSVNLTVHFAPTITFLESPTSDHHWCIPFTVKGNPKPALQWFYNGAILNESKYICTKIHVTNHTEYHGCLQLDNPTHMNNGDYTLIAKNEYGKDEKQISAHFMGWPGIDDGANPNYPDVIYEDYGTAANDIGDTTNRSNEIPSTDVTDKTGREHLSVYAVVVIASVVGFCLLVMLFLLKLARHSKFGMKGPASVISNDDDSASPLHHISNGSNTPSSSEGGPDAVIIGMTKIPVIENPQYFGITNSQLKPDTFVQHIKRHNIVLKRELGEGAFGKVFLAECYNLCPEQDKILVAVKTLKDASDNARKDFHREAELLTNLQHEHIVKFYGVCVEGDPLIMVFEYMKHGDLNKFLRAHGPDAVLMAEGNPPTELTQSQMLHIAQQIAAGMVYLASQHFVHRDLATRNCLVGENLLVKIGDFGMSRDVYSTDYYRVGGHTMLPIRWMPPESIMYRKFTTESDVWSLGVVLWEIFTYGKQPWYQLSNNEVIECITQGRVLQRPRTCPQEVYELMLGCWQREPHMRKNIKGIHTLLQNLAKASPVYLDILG", "assay": "cell-based or functional assay"}, "[7]": {"target": "T5, human TrkB (open reading frame from …)", "assay": "cell-based or functional assay", "remark": "listed apart in the source"}, "[8]": {"target": "T6, rhTrkB-ECD (R&D #397-TR/CF) (human, UniProt Q16620 32-430)", "T6 construct": "extracellular domain; Bought protein; also called human TrkB-extracellular domain protein; human TrkB ectodomain protein", "T6 sequence (Q16620 32-430)": "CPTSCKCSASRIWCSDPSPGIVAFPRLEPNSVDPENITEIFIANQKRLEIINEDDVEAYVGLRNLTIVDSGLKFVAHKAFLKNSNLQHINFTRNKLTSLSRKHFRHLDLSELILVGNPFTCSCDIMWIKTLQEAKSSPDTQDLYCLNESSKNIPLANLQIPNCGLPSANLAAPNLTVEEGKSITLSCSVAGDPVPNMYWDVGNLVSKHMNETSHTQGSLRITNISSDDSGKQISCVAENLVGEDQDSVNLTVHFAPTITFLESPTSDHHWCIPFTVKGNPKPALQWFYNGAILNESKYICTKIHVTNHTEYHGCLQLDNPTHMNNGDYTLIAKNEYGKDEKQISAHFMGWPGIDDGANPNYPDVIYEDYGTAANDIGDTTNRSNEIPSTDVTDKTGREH", "assay": "competition ELISA: plate coated with rhTrkB-ECD; biotinylated chimeric TOA-1 at 25 ng/ml mixed with the unlabeled antibody; streptavidin-HRP"}, "rhTrkB-ECD-His": {"target": "T7, rhTrkB-ECD-His (human, UniProt Q16620 32-430)", "T7 construct": "extracellular domain", "T7 sequence (Q16620 32-430)": "as above", "assay": "competition ELISA: plate coated with rhTrkB-ECD-His; biotinylated humanized TOA-1 at 25 ng/ml mixed with unlabeled huTOA-1; streptavidin-HRP"}, "[9]": {"target": "hTrkC in the SHC1 recruitment assay (U2OS, Discoverx Pathhunter) (human, UniProt Q16288 32-839)", "sequence (Q16288 32-839)": "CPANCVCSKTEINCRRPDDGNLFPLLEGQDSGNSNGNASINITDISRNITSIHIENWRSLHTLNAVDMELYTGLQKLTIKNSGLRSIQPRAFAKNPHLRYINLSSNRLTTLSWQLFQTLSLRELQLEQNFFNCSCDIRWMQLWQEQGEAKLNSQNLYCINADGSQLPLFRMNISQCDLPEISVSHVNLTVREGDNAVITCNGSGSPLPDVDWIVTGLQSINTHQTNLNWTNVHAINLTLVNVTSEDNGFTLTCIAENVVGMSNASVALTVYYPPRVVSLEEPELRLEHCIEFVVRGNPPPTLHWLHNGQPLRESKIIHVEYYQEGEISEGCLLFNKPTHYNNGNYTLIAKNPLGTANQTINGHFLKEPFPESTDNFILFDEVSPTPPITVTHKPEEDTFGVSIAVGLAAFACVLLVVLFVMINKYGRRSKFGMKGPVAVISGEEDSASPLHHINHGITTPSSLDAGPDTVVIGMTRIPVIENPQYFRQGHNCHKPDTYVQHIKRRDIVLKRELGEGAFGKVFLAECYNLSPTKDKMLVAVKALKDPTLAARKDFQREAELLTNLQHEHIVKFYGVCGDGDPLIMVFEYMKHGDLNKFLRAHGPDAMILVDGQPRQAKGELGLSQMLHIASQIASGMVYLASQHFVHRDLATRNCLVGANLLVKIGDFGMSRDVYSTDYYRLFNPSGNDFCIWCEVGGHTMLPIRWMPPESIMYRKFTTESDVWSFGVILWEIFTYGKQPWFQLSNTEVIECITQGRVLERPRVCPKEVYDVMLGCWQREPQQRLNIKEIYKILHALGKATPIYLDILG", "assay": "cell-based or functional assay"}, "[10]": {"target": "hTrkB-a isoform fused to a small peptide epitope, in U2OS cells (Discoverx Pathhunter) (human, UniProt Q16620 32-822)", "sequence (Q16620 32-430)": "as the sequence (Q16620 32-430) above", "assay": "cell-based or functional assay"}, "[11]": {"target": "hTrkA in the SHC1 recruitment assay (U2OS, Discoverx Pathhunter) (human, UniProt P04629 33-796)", "sequence (P04629 33-796)": "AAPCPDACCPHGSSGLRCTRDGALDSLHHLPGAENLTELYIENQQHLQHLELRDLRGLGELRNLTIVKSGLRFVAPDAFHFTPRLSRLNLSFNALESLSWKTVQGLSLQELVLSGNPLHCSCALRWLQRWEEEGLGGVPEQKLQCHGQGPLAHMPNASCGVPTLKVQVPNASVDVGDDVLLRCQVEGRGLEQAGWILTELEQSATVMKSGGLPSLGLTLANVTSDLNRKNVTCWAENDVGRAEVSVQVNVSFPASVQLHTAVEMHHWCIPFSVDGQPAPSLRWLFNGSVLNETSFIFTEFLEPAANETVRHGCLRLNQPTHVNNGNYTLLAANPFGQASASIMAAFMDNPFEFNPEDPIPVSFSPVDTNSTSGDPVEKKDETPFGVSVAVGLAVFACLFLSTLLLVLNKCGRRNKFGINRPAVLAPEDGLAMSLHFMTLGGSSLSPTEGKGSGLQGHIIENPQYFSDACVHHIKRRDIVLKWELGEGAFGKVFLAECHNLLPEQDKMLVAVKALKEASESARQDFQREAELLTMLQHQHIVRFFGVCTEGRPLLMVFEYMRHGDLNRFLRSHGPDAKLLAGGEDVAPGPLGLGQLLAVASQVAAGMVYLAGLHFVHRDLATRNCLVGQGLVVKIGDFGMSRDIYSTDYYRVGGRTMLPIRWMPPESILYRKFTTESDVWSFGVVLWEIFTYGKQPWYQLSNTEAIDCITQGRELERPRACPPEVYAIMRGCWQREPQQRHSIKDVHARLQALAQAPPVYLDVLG", "assay": "cell-based or functional assay"}, "[12]": {"target": "T8, Mouse TrkB ectodomain protein (R&D #1494-TB/CF) (mouse, UniProt P15209 32-429)", "T8 construct": "extracellular domain; Bought protein; also called mouse TrkB-extracellular domain protein", "T8 sequence (P15209 32-429)": "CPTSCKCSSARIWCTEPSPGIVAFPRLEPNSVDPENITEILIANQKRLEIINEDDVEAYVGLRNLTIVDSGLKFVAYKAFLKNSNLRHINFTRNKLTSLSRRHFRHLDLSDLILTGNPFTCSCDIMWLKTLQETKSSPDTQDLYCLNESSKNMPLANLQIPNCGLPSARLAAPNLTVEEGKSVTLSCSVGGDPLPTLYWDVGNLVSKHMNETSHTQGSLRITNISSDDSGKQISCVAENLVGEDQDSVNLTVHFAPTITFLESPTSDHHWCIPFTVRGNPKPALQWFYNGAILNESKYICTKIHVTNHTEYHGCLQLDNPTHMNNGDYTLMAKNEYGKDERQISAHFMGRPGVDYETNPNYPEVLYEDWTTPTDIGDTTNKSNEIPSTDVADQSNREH", "assay": "SPR (Biacore), TrkB ectodomain immobilised on CM5, antibody injected"}, "[13]": {"target": "T6, rhTrkB-ECD (R&D #397-TR/CF)", "assay": "SPR (Biacore), TrkB ectodomain immobilised on CM5, antibody injected"}, "[14]": {"target": "T9, recombinant human TrkC-Fc (rhTrkC-ECD, R&D system, 373-TC/TF) (human, UniProt Q16288 32-429)", "T9 construct": "extracellular domain; Bought protein; not shown: Fc part, not described", "assay": "direct binding ELISA: plate coated with rhTrkC-ECD (Fc chimera) at 5 ug/ml, biotinylated antibody, streptavidin-HRP"}, "[15]": {"target": "T10, Recombinant human CCL20 (Peprotech) (human, UniProt P78556 27-96)", "T10 sequence (P78556 27-96 limits assumed)": "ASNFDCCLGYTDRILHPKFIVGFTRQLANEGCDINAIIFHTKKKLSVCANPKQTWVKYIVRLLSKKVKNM", "assay": "SPR stoichiometry, Ab captured on protein A, cytokine at saturation, N = 2"}, "[16]": {"target": "T11, Recombinant human IL13 (R&D Systems) (human, UniProt P35225 35-146, limits assumed)", "T11 sequence (P35225 35-146 limits assumed)": "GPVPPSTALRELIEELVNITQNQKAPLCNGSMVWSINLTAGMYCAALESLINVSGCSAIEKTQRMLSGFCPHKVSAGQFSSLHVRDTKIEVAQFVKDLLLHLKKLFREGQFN", "assay": "SPR stoichiometry, Ab captured on protein A, cytokine at saturation, N = 2"}, "[17]": {"target": "T10, Recombinant human CCL20 (Peprotech)", "assay": "SPR stoichiometry, Ab captured on protein A, cytokine at saturation, N = 1"}, "[18]": {"target": "T11, Recombinant human IL13 (R&D Systems)", "assay": "SPR stoichiometry, antibody captured on protein A"}}, "note": "Several values for one entry are separate records, joined by “and”; a condition that tells them apart may be missing. Equal values may be shown once."}
{"binder": "B1", "values": [{"measurement": "EC50", "setting": "[1]", "value": 330, "unit": "pM"}, {"measurement": "EC50", "setting": "[2]", "value": 520, "unit": "pM"}, {"measurement": "binding result", "setting": "Chimeric TrkB (d4TrkA)", "value": "binds"}, {"measurement": "binding result", "setting": "[3]", "value": "no binding"}, {"measurement": "EC50", "setting": "[4]", "value": 340, "unit": "pM"}, {"measurement": "EC50", "setting": "[5]", "value": 390, "unit": "pM"}, {"measurement": "Cre-luciferase reporter, maximum fold-increase (FIG. 38)", "setting": "[6]", "value": 5, "unit": "fold"}, {"measurement": "EC50, hTrkB Cre-luc reporter assay, lot L40042-192", "setting": "[7]", "value": "240 pM and 390 pM and 610 pM"}, {"measurement": "EC50, hTrkB Cre-luc reporter assay, lot L42385-008", "setting": "[7]", "value": "250 pM and 370 pM"}, {"measurement": "EC50, hTrkB Cre-luc reporter assay, lot L42385-024", "setting": "[7]", "value": 130, "unit": "pM"}, {"measurement": "EC50, hTrkB Cre-luc reporter assay, lot L42385-152", "setting": "[7]", "value": 100, "unit": "pM"}, {"measurement": "Fold-increase, hTrkB Cre-luc reporter assay, lot L42385-024", "setting": "[7]", "value": 5.3, "unit": "fold"}, {"measurement": "Fold-increase, hTrkB Cre-luc reporter assay, lot L42385-152", "setting": "[7]", "value": 4.5, "unit": "fold"}, {"measurement": "IC50 (read off the curve)", "setting": "[8]", "value": "~6000", "unit": "pM"}, {"measurement": "IC50 (read off the curve)", "setting": "rhTrkB-ECD-His", "value": "~8000", "unit": "pM"}, {"measurement": "Fold-increase, SHC1 recruitment assay", "setting": "[9]", "value": 1, "unit": "fold"}, {"measurement": "EC50, SHC1 recruitment assay", "setting": "[10]", "value": 670, "unit": "pM"}, {"measurement": "Fold-increase, SHC1 recruitment assay", "setting": "[10]", "value": 5.2, "unit": "fold"}, {"measurement": "Fold-increase, SHC1 recruitment assay", "setting": "[11]", "value": 1.1, "unit": "fold"}, {"measurement": "Kd", "setting": "[12]", "value": 11400, "unit": "pM"}, {"measurement": "Kd", "setting": "[13]", "value": 9400, "unit": "pM"}, {"measurement": "binding result", "setting": "[14]", "value": "no binding (tested: about 6.7 nM)"}]}
{"binder": "B2", "values": [{"measurement": "Binding Ratio", "setting": "[15]", "value": 2}, {"measurement": "Binding Ratio (measured, before normalisation)", "setting": "[15]", "value": 2.18}, {"measurement": "Binding Ratio", "setting": "[16]", "value": 0}, {"measurement": "Binding Ratio", "setting": "[17]", "value": 2}, {"measurement": "Binding Ratio (measured, before normalisation)", "setting": "[17]", "value": 2.15}, {"measurement": "binding result", "setting": "[18]", "value": "no binding"}]}
